# Results published in the RNAGym collection of RNA variant scans (doi:10.7554/elife.80360).
# B1: CPEB3 Ribozyme (parent)
# chain: GGGGGCCACAGCAGAAGCGUUCACGUCGCGGCCCCUGUCAGAUUCUGGUGAAUCUGCGAAUUCUGCUGU
# Variants of: B1
# Experiment: self-cleavage, relative activity (ratio to wild type); higher = more cleavage; co-transcriptional
row,Variant,self-cleavage
1,U44A G48U,0.982
2,U44A G48C,1.01
3,C45U G56A,0.943
4,C45U U46A,0.999
5,C45U U46G,0.952
6,C45U U46C,0.975
7,U46C G65U,0.629
8,A42U G48U,0.99
9,C45A G50U,1.04
10,C45A G50C,0.931
11,U46G A52G,0.992
12,U46G A52C,0.942
13,A42G U64A,0.602
14,A42G U64C,0.678
15,A42G U64G,0.693
16,A42U A59U,0.677
17,A42U A59C,0.546
18,U46A A52G,1.03
19,U46A A52U,0.981
20,U43A G68A,0.933
21,U43G U61G,0.265
22,U43G U61A,0.701
23,U44A A52C,0.912
24,U44A A52G,0.988

row,Variant,self-cleavage
1,C45U U49C,0.986
2,C45U U49G,1.01
3,U43G G68C,0.902
4,C45U C66U,0.984
5,U43C G56U,0.638
6,U43C U53C,0.855
7,U43C U53G,0.978
8,U44G U62A,0.908
9,U44G U62G,0.777
10,C45A G65A,0.814
11,U43G C45U,1.02
12,U46C G47U,1.02
13,C45A G47C,0.995
14,C45A G47U,0.986
15,C45A G47A,0.999
16,U43C A52G,0.965
17,U46A C63G,0.838
18,U46A C63A,0.908
19,U46A G68U,0.988
20,C45A C63U,1.02
21,C45A C63G,0.813
22,U43G U46A,0.959
23,U46G C54A,0.845
24,U46G C54U,0.992

row,Variant,self-cleavage
1,U46A U55G,0.916
2,C45U U53G,0.9
3,C45U U53A,0.936
4,C45A A51U,0.931
5,U44C G68U,0.987
6,U43G C66G,0.484
7,U46A U53A,0.989
8,U46A U53C,0.971
9,U46A U53G,0.931
10,A42G G58U,0.978
11,C45A U61C,0.697
12,U43G C63A,0.436
13,U43G C63U,0.751
14,U46G A59C,0.828
15,C45U G50U,0.991
16,U46C C54U,0.975
17,U44C U67C,0.937
18,U43C U61G,0.562
19,U43C U61C,0.511
20,U43C U61A,0.764
21,U43C A51U,0.944
22,U43C A51G,0.964
23,C45G G65C,0.62
24,U46C U61C,0.788

row,Variant,self-cleavage
1,U46C U61G,0.856
2,U44C G47C,0.963
3,C45G U64A,0.908
4,U46A U67A,0.972
5,U44G C66A,0.733
6,C45G G68U,0.979
7,U44C C63A,0.542
8,A42G U55G,0.335
9,U46A A60U,0.556
10,U43A C63U,0.86
11,U43G U62A,0.529
12,U43G U62C,0.437
13,C45G G50U,0.961
14,U44C G65A,0.519
15,U44C G65U,0.488
16,U43G C54U,0.662
17,U46A G47C,1.04
18,A42U U46A,1.03
19,A42U U46G,1.01
20,C45G C54A,0.579
21,U43G U55C,0.312
22,U43A U69C,1.04
23,U44A G58A,0.963
24,U44A G58U,0.951

row,Variant,self-cleavage
1,U43C U44G,0.904
2,A42U G50A,0.949
3,A42U C63G,0.533
4,A42U C63A,0.608
5,U43A C45G,0.868
6,C45U U69G,1.05
7,C45A G56A,0.848
8,U43C C54A,0.734
9,C45A U55C,0.516
10,A42U G68C,0.964
11,A42U G68U,0.99
12,U46C A59C,0.744
13,U43G G48U,1.01
14,U43C C57U,0.394
15,U43A U53A,0.946
16,U43A U53C,0.795
17,U43C U49A,0.988
18,U43C U49G,0.949
19,C45U C63U,1
20,C45U C63G,0.816
21,C45U U62G,0.847
22,C45U U62C,0.895
23,U46C U49G,1.01
24,U44C U55G,0.372

row,Variant,self-cleavage
1,U46A,1
2,U46G,0.994
3,U46C,0.986
4,U43C G65U,0.568
5,U43C G65A,0.732
6,U44G C63G,0.588
7,C45G G56C,0.469
8,C45G G56U,0.722
9,U43A C57G,0.357
10,C45U U61G,0.897
11,A42G U69A,1.01
12,U43A G48C,0.912
13,C45G U69G,1.05
14,C45G U53A,0.921
15,U44G G56C,0.44
16,U44G G56A,0.822
17,U44C U64C,0.565
18,C45A A60G,0.862
19,C45A A60C,0.476
20,C45A A60U,0.424
21,U44A U46G,0.981
22,U44A U46C,0.993
23,U46A G50U,0.977
24,U43A A60C,0.281

row,Variant,self-cleavage
1,U43G C57G,0.308
2,U43G C57U,0.385
3,U46A G56C,0.858
4,U46A G56U,0.941
5,A42G U44G,0.904
6,C45A G48A,1.02
7,U43A U55G,0.283
8,U43A U55C,0.289
9,U44G U55A,0.432
10,U44G U55G,0.574
11,A42U U69G,1.01
12,C45A G58U,0.988
13,U44C A60C,0.378
14,C45U A59C,0.72
15,C45U C57U,0.317
16,U44G U61A,0.808
17,U43G G58A,0.881
18,U44G C57G,0.335
19,U44G C57U,0.23
20,U44G C57A,0.327
21,U44A A60G,0.725
22,A42U U44C,0.913
23,A42U U44G,0.859
